The values below come from patent US20120156130A1 (published 2012).

B1: U1-49, anti-HER3 antibody (antibody, V domains shown)
VH: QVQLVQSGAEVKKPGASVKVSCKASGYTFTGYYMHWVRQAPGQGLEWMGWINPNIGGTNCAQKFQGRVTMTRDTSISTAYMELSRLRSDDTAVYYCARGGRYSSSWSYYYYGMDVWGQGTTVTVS
VL: DILMTQTPLSLSVTPGQPASISCKSSQSLLLSDGGTYLYWYLQKPGQPPQLLIYEVSNRFSGVPDRFSGSGSGTDFTLKISRVEAEDVGVYYCMQSMQLPITFGQGTRLEIK
B2: U1-53, anti-HER3 antibody (antibody, V domains shown)
VH: EVQLVESGGGLVQPGGSLRLSCAASGFTFSIYSMNWVRQAPGKGLEWVSYISSSSSTIYYADSVKGRFTISRDNAKNSLYLQMNSLRDEDTAVYYCARDRGDFDAFDIWGQGTMVTVSS
VL: DIQMTQSPSSLSASVGDRVTITCQASQDITNYLNWYQQKPGKAPKLLIYDASNLETGVPSRFSGSGSGTDFTFTISSLQPEDIATYNCQQCENFPITFGQGTRLEIK
B3: U1-59, fully human anti-HER3 monoclonal antibody (antibody, V domains shown)
VH: QVQLQQWGAGLLKPSETLSLTCAVYGGSFSGYYWSWIRQPPGKGLEWIGEINHSGSTNYNPSLKSRVTISVETSKNQFSLKLSSVTAADTAVYYCARDKWTWYFDLWGRGTLVTVSS
VL: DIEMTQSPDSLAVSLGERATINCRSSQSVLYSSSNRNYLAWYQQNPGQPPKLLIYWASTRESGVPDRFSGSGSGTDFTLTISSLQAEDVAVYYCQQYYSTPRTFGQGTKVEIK

In this assay the target is HER3 on DU-145 and PC-3 prostate cancer cells (UniProt P21860 20-1342, limits assumed). Put plainly: cell-based or functional assay.
HER3 on DU-145 and PC-3 prostate cancer cells, sequence (P21860 20-1342 limits assumed): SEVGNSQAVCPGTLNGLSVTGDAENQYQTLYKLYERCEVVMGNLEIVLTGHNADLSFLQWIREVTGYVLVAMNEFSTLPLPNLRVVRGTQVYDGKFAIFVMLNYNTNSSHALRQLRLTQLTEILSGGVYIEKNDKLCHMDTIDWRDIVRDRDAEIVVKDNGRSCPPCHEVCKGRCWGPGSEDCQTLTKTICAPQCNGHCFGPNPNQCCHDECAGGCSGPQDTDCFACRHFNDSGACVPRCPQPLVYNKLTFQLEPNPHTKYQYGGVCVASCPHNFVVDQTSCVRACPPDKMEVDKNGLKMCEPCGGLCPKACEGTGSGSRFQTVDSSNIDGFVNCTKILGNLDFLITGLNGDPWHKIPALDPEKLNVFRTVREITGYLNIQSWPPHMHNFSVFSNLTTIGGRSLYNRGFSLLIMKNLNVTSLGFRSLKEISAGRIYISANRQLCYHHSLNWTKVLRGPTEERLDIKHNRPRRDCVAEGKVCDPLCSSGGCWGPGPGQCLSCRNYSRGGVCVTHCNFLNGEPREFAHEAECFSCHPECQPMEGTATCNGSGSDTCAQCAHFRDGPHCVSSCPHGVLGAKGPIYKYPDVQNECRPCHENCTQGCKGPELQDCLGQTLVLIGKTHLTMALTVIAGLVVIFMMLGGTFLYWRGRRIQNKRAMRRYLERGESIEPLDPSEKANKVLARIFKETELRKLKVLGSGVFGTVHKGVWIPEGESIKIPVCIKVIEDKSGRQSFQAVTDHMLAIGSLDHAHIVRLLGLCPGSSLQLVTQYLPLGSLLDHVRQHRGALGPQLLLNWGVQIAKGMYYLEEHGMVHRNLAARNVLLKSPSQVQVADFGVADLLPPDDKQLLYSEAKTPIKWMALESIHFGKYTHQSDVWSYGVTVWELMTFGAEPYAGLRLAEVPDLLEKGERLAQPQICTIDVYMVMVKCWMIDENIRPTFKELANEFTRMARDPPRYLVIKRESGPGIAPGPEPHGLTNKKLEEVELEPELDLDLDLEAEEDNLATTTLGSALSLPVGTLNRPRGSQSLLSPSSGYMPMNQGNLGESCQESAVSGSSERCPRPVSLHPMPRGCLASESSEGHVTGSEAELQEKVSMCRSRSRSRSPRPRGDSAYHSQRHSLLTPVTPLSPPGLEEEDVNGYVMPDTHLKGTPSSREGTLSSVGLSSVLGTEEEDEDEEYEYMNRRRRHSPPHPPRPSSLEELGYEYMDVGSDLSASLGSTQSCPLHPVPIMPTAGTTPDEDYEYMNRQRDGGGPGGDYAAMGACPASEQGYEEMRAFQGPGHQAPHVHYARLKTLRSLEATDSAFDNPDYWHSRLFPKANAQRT
With B1, the “inhibition in colony formation (anchorage independent growth of PC-3 cells, soft agar)” value (“inhibition in colony formation” below) was determined as 52%.

Consider B2, for which the “inhibition in colony formation” value amounted to 78%.

With B3, the “inhibition in colony formation” value is 78%.
